The target in this test is T1, Msn5_(βC-helix-tail) (residues 1179-1224 removed) (S. cerevisiae, UniProt P52918 1-1178).
T1 sequence (looked up): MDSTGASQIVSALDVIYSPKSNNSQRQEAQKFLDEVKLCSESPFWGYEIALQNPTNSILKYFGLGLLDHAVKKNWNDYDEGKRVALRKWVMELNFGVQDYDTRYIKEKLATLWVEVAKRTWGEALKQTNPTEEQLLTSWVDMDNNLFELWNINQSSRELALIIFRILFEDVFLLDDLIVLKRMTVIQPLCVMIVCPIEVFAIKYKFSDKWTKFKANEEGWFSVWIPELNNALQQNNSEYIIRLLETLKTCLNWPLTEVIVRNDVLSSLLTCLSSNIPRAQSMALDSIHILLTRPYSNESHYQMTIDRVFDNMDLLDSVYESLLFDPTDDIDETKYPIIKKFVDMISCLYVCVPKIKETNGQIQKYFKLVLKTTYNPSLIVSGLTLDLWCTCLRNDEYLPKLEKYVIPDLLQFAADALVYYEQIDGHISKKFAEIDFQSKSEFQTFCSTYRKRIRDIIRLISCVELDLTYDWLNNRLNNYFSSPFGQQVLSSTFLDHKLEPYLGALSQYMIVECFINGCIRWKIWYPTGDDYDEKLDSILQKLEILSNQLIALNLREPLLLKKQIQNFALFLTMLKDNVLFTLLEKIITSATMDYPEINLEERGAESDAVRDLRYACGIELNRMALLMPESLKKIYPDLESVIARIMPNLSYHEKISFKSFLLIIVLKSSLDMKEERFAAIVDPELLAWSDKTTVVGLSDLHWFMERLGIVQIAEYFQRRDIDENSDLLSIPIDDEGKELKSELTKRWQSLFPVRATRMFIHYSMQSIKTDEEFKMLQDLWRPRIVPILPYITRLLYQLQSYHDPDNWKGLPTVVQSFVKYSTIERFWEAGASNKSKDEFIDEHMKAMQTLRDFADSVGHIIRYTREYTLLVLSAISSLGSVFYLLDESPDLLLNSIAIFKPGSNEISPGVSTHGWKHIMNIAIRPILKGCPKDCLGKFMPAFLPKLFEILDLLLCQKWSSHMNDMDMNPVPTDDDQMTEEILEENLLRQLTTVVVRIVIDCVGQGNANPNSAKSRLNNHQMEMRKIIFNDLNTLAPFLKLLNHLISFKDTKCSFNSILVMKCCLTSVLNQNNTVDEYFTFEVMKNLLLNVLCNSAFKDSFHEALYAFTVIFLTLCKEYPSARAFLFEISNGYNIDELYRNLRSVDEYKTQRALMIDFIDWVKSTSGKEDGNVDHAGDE
In words: pull-down.

B1: GST-pPho4_(1-200) (domain or fragment, S. cerevisiae, UniProt P07270 1-200, looked up)
chain: MGRTTSEGIHGFVDDLEPKSSILDKVGDFITVNTKRHDGREDFNEQNDELNSQENHNSSENGNENENEQDSLALDDLDRAFELVEGMDMDWMMPSHAHHSPATTATIKPRLLYSPLIHTQSAVPVTISPNLVATATSTTSANKVTKNKSNSSPYLNKRRGKPGPDSATSLFELPDSVIPTPKPKPKPKQYPKVILPSNST
modifications: phosphoserine at 100, 114, 128, 152 (in vitro phosphorylation by Pho80-Pho85)
With B1, the binding result is “binds”.

(Values after doi:10.1101/2024.08.12.607649 (bioRxiv, 2024).)
